Results: patent US6043072A, “Nucleic acids encoding Taxus geranylgeranyl diphosphate synthase, and methods of use” (Washington State University Research Foundation, priority 1998, dated 2000)

Key:
[1] = substrate: C=C(C)CCO[P@@](=O)(O)OP(=O)(O)O; experiment: purified protein, by the assay type; conditions: other: double reciprocal plotting; remaining reactants at saturation
[2] = substrate: CC(C)=CCC/C(C)=C/CC/C(C)=C/CO[P@@](=O)(O)OP(=O)(O)O; experiment: purified protein, by the assay type; conditions: other: double reciprocal plotting; remaining reactants at saturation

B1: T. canadensis GGPP synthase (Taxus canadensis) (protein)
chain: FDFNEYMKSKAVAVDAALDKAIPLEYPEKIHESMRYSLLAGGKRVRPALCIAACELVGGSQDLAMPTACAMEMIHTMSLIHDDLPCMDNDDFRRGKPTNHKVFGEDTAVLAGDALLSFAFEHIAVATSKTVPSDRTLRVISELGKTIGSQGLVGGQVVDITSEGDANVDLKTLEWIHIHKTAVLLECSVVSGGILGGATEDEIARIRRYARCVGLLFQVVDDILDVTKSSEELGKTAGKDLLTDKATYPKLMGLEKAKEFAAELATRAKEELSSFDQIKAAPLLGLADYIAFRQN
- Km [1]: 7 µM
- Km [2]: 6 µM
